For one substance, binding signal (fold affinity vs holoenzyme without RapA) results are on record in article PMC2175355.

The target in this data set is RNA polymerase holoenzyme (sigma70);RapA (native) (Escherichia coli;Escherichia coli) (UniProt P0A7Z4+P0A8V2+P0A8T7+P0A800+P00579+P60240). The experiment in a line: EMSA.

With “55-nt RNA with two stem-loops and rA18 tail”, the binding signal (fold affinity vs holoenzyme without RapA) was above 20.
